The supplement of paper PMC9170038

Test system: MS2 coat protein
Assay: apparent KD of MS2 coat protein; designed switch direction (-1 OFF switch, 1 ON switch): -1; higher = weaker reporter binding
Summary of the method: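 The buffer was Tris-HCl pH 7.5 with KCl, MgCl2, BSA, DTT, tRNA and Tween-20. In it, SNAP-549-labelled MS2 coat protein was titrated in doubling steps from 0.7 or 1.5 nM to 3 µM over chip-bound RNA switches transcribed by stalled E. coli RNA polymerase on Illumina chips. Apparent KD is the per-design median over clusters of curve fits to normalised fluorescence.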

[1] = Eterna round: R95, input ligand: microRNA oligo, concentration not stated
[2] = Eterna round: R95, input ligand: FMN 200 uM
[3] = Eterna round: R95, input ligand: none
[4] = input ligand: microRNA oligo, concentration not stated

## GCUGGUCGAGGAUAUGCAAUCGUGCUUCGGCACGUAAGAUCACAUGAGGAUCACCCAUGUAGAAGGUGACCAGC [E2/3-B1] (Eterna round: R97, puzzle: Exclusion 2)
Input ligand: FMN 200 uM
  apparent KD of MS2 coat protein: 0.0312 µM
Input ligand: none
  apparent KD of MS2 coat protein: 0.0178 µM

## AGCCUCGCUGUUAGGAUAUGCAUGGAUAAGCUCCGGCAGAAGGGACAUGAGGAUCACCCAUGUAACGUAGUUUA [BmEX4 B.4] (Eterna round: R97, puzzle: Brourd's mod of Exclusion 4)
Input ligand: FMN 200 uM
  apparent KD of MS2 coat protein: 0.0318 µM
Input ligand: none
  apparent KD of MS2 coat protein: 0.0252 µM

## CCUCUACAUGAGGAUCACCCAUGUGAGGAUAUCCUGCGAGGAUCAAAAGAUCCUCGUGGGAGAAGGCAUAUGUA [Omei Ex1 A2] (Eterna round: R97, puzzle: Exclusion 1)
Input ligand: FMN 200 uM
  apparent KD of MS2 coat protein: 0.0306 µM
Input ligand: none
  apparent KD of MS2 coat protein: 0.0248 µM

## CUUUAGUGAGGAUAUCAGUAGUAAUACAAUAGUAUUACUAUUGAGAAGGCACAUGAGGAUCACCCAUGUUCCUC [Mat - Exclusion 4 - Mod of Omei - D80] (puzzle: Exclusion 4)
[1]
  apparent KD of MS2 coat protein: 0.0272 µM

## GAUCAACAUGAGGAUCACCCAUGUGAGGAUAUGAUACUAUGUACUUCGGUACAUAGUAUCAGAAGGCAUUAGGA [Ex1-3: 39] (puzzle: Exclusion 1)
[1]
  apparent KD of MS2 coat protein: 0.0523 µM

## GGUUGGCGAGGAUAUACAUGAGGAUCACCCAUGUGAGAGAAAACAGUGAGGAAGAAAAGUAGAAGGCGCUGACG [salish99_ex3_r3_024] (puzzle: Exclusion 3)
[2]
  apparent KD of MS2 coat protein: 0.466 µM
[1]
  apparent KD of MS2 coat protein: 0.0526 µM
[3]
  apparent KD of MS2 coat protein: 0.048 µM

## AAUACAAGCUAUUGAUCCCACAUGAGGAUCACCCAUGUGCCUGGCCGUGAGACAAGGUUUACAAUAGCUCGUCUUAU [Sensor-V1 #46] (Eterna round: R97, puzzle: Sensor, turn-off variant 1)
Input ligand: FMN 200 uM
  apparent KD of MS2 coat protein: 0.0461 µM
Input ligand: none
  apparent KD of MS2 coat protein: 0.0447 µM

## AGAUGGCGAGGAUAUACAUGAGGAUCACCCAUGUGAGAGAUUAGAGUGAGGAAGAAAAGUAGAAGGCGCUGUCA [Mat - Exclusion 3 - Mod of Salish D18] (puzzle: Exclusion 3)
[2]
  apparent KD of MS2 coat protein: 0.167 µM
[1]
  apparent KD of MS2 coat protein: 0.0984 µM
[3]
  apparent KD of MS2 coat protein: 0.144 µM

## AAGACGCGUGUAAGGAUAUCGAAAGCCCGAGGCGACGAGAAGGUACAUGAGGAUCACCCAUGUGCAGAUCACAA [BmEX4 B.3] (Eterna round: R97, puzzle: Brourd's mod of Exclusion 4)
Input ligand: FMN 200 uM
  apparent KD of MS2 coat protein: 0.0189 µM
Input ligand: none
  apparent KD of MS2 coat protein: 0.0173 µM

## GGAUCGAGUGUGAGGAUAUACCUAUGGAAACAUAGGUAGAAGGCACAUGAGGAUCACCCAUGUUCCUACGGUCC [Mat - Exclusion 4 - Eli Mod - D8] (Eterna round: R97, puzzle: Brourd's mod of Exclusion 4)
Input ligand: FMN 200 uM
  apparent KD of MS2 coat protein: 0.658 µM
Input ligand: none
  apparent KD of MS2 coat protein: 0.0755 µM

## UCGCUGCGAGGAUAUACAUGAGGAUCACCCAUGUGCGGGUCCGGGUCUUCGUCCAUUAGUAGAAGGCGCAGUGA [JL Laongeedie mod 4] (puzzle: Exclusion 3)
[1]
  apparent KD of MS2 coat protein: 0.0999 µM

## AUAGGUUCGUAGGAUAUUCCUGCAGGCGCGCUGGAAGAAGGAUGAACAUGAGGAUCACCCAUGUGAACACUCCG [Eternabot (L2) Solution 88] (Eterna round: R97, puzzle: Exclusion 6)
Input ligand: FMN 200 uM
  apparent KD of MS2 coat protein: 0.0783 µM
Input ligand: none
  apparent KD of MS2 coat protein: 0.0196 µM

## AUCAGCUCGUCAGGAUAUACAUGCGUGCUUCGGCACGAAUUUAAGAUCACAUGAGGAUCACCCAUGUAGAAGGGACGAGCUGAU [ENG2/3-B3] (Eterna round: R96, puzzle: Exclusion NG 2)
Input ligand: FMN 200 uM
  apparent KD of MS2 coat protein: 1.27 µM
[4]
  apparent KD of MS2 coat protein: 0.498 µM
Input ligand: none
  apparent KD of MS2 coat protein: 0.526 µM

## CUCGGACAUGAGGAUCACCCAUGUGAGGAUAUGGUGCUAUCGUCAUUAGACGAUUGCGUUAGAAGGCACAAAUG [LRO-Excl1-28] (puzzle: Exclusion 1)
[1]
  apparent KD of MS2 coat protein: 0.0352 µM

## GAUUAGCAAGUGAGAUCCCACAUGAGGAUCACCCAUGUGCUCGUCUUAUAAGGUACUGUGACGAAAGUCACGGUACC [Mat - Sensor, turn-off var - Eli Mod - D6] (Eterna round: R97, puzzle: Sensor, turn-off variant 1)
Input ligand: FMN 200 uM
  apparent KD of MS2 coat protein: 0.424 µM
Input ligand: none
  apparent KD of MS2 coat protein: 0.226 µM

## GCAGCAUAGUCCAAAUAGGACAUACAUGAGGAUCACCCAUGUCAGGAUAUGGUCUGGAUUACAGGCCAGAAGGGACAAAGCUGC [Eli exng3 - 001] (Eterna round: R96, puzzle: Exclusion NG 3)
Input ligand: FMN 200 uM
  apparent KD of MS2 coat protein: 0.0304 µM
[4]
  apparent KD of MS2 coat protein: 0.0223 µM
Input ligand: none
  apparent KD of MS2 coat protein: 0.0279 µM

## CCGGUUGGCGCAGGAUAUACAUGAGGAUCACCCAUGUUCAUGAGGAUCACCUAUGAGUUUUUGUUGUAGAAGGGUGGCCCGGCC (Eterna round: R96, puzzle: Exclusion NG 2)
Input ligand: FMN 200 uM
  apparent KD of MS2 coat protein: 0.0531 µM
[4]
  apparent KD of MS2 coat protein: 0.0391 µM
Input ligand: none
  apparent KD of MS2 coat protein: 0.0529 µM

## AGCUGACAAGGAUAUACAUGAGGAUCACCCAUGUUGGUCAAGCGACGAUAGUCGCAAUGUAGAAGGUGUCAGCU [E3/8-C1] (Eterna round: R97, puzzle: Exclusion 3)
Input ligand: FMN 200 uM
  apparent KD of MS2 coat protein: 1.75 µM
Input ligand: none
  apparent KD of MS2 coat protein: 0.341 µM

## GGUUGGCGAGGAUAUACAUGAGGAUCACCCAUGUGAGAGAUACUAGUGAGGUCGAUUAGUAGAAGGCGCUGACG [JL-ex3-2.01 salish99 mod] (puzzle: Exclusion 3)
[2]
  apparent KD of MS2 coat protein: 0.174 µM
[1]
  apparent KD of MS2 coat protein: 0.0311 µM
[3]
  apparent KD of MS2 coat protein: 0.0322 µM

## GCAGCUAAUGCAGGAUAUCAGCACGAUUAGUGCUGAGAAGGGCACAUGAGGAUCACCCAUGUGAUCAAUUAAUAUUAAUGCUGC [ENG1/11-B1] (Eterna round: R96, puzzle: Exclusion NG 1)
Input ligand: FMN 200 uM
  apparent KD of MS2 coat protein: 0.184 µM
[4]
  apparent KD of MS2 coat protein: 0.024 µM
Input ligand: none
  apparent KD of MS2 coat protein: 0.0251 µM

## AGUCUGCGAGGAUAUACAUGAGGAUCACCCAUGUGCGAGAUACUAGUGAGGUCGAUUGGUAGAAGGCGCGGACA [Mat - Exclusion 3 - Mod of JL D86] (puzzle: Exclusion 3)
[1]
  apparent KD of MS2 coat protein: 0.0845 µM

## AAUUAGUGAGGAUAUUCGAGCAGUGGCAGUAGCCAGUGCAUGAAGAAGGCACAUGAGGAUCACCCAUGUUAUAA [EX4 #60] (Eterna round: R97, puzzle: Exclusion 4)
Input ligand: FMN 200 uM
  apparent KD of MS2 coat protein: 0.0534 µM
Input ligand: none
  apparent KD of MS2 coat protein: 0.0284 µM

## ACACUUGAACAUGAGGAUCACCCAUGUGUUUUUCUGGUUCGGCAGGAUAUCGUCUAACGCCAGGGCGAGAAGGGCCAAUAAAAG [Inlale] (Eterna round: R96, puzzle: Exclusion NG 3)
Input ligand: FMN 200 uM
  apparent KD of MS2 coat protein: 0.026 µM
[4]
  apparent KD of MS2 coat protein: 0.0294 µM
Input ligand: none
  apparent KD of MS2 coat protein: 0.037 µM

## AAGGCGGUAGGAUAUACAUGAGGAUCACCCAUGUACGCGUGGAUCCCUGUGACGUCAAGUAGAAGGGCCAUAAA [Xetesobiar] (Eterna round: R97, puzzle: Exclusion 3)
Input ligand: FMN 200 uM
  apparent KD of MS2 coat protein: 0.0275 µM
Input ligand: none
  apparent KD of MS2 coat protein: 0.0318 µM

## GAGAAGGUAGGAUAUACGAAGAAAGAGGGUAGGAAGAAUACACAUGAGGAUCACCCAUGUAGAAGGACCAAGAG [Mat - Exclusion 2 - Mod of my Tesla design - D47] (puzzle: Exclusion 2)
[2]
  apparent KD of MS2 coat protein: 0.0329 µM
[1]
  apparent KD of MS2 coat protein: 0.0178 µM
[3]
  apparent KD of MS2 coat protein: 0.023 µM

## AAGAACGUACAAGGAUAUCUCCACCACAACGGCAGAGAAGGUGUACAUGAGGAUCACCCAUGUGACCGAAGGCCCUUAUGGGCC [Xeerergeza] (Eterna round: R96, puzzle: Exclusion NG 1)
Input ligand: FMN 200 uM
  apparent KD of MS2 coat protein: 0.0798 µM
[4]
  apparent KD of MS2 coat protein: 0.0206 µM
Input ligand: none
  apparent KD of MS2 coat protein: 0.0296 µM

## GUCGCGUGGGUGUGGGAGGACAUGAGGAUCACCCAUGUGACUACCAAGCUUUUUGCUCCUCUUAGGUCCAUGGGAAG [Random] (Eterna round: R97, puzzle: Sensor, turn-off variant 1)
Input ligand: FMN 200 uM
  apparent KD of MS2 coat protein: 0.067 µM
Input ligand: none
  apparent KD of MS2 coat protein: 0.109 µM

## GAGGAGCAAGGAUAUACGAGGAGAGGGAAGAGAGGAGAGAGACAUGAGGAUCACCCAUGUAGAAGGUGCAAGGG [JR_Exclu2_Sub093] (puzzle: Exclusion 2)
[2]
  apparent KD of MS2 coat protein: 0.116 µM
[1]
  apparent KD of MS2 coat protein: 0.131 µM
[3]
  apparent KD of MS2 coat protein: 0.18 µM

## ACUUACUGAGGAUAUACAUAGAUAAACAUGAGGAUCACCCAUGUUCCUAUAAGUAUAUAUGUAGAAGGCAGAAGAA [JR_Ex5_Sub074] (Eterna round: R97, puzzle: Exclusion 5)
Input ligand: FMN 200 uM
  apparent KD of MS2 coat protein: 0.0242 µM
Input ligand: none
  apparent KD of MS2 coat protein: 0.0147 µM

## GCUGGUCAAGGAUAUACAAUCGUGCUUCGGCACGUAAGAUCACAUGAGGAUCACCCAUGUAGAAGGUGACCAGC [E2/1-C1] (Eterna round: R97, puzzle: Exclusion 2)
Input ligand: FMN 200 uM
  apparent KD of MS2 coat protein: 0.507 µM
Input ligand: none
  apparent KD of MS2 coat protein: 0.0372 µM

## GUGUACAGAGGAUAUAUAUGAGCAUGGAAACAUGCAAGAUCACAUGAGGAUCACCCAUGUAGAAGGCUGUACAC [Ex2: 736] (Eterna round: R96, puzzle: Exclusion 2)
Input ligand: FMN 200 uM
  apparent KD of MS2 coat protein: 0.861 µM
[4]
  apparent KD of MS2 coat protein: 0.0993 µM
Input ligand: none
  apparent KD of MS2 coat protein: 0.112 µM

## CUGGUCCGAGGAUAUAUUAAGUGAAACAUGAGGAUCACCCAUGUUAUUUAAUGGAAGUAAAUAGAAGGCGGACUAG [Mat - Exclusion 5 - JL mod - D54] (puzzle: Exclusion 5)
[2]
  apparent KD of MS2 coat protein: 0.0387 µM
[1]
  apparent KD of MS2 coat protein: 0.0488 µM
[3]
  apparent KD of MS2 coat protein: 0.0435 µM

## AAUGAGCUAGGAUAUACAUGAGGAUCACCCAUGUAAAAUAGGUCAUGGAUGAACCACUGUAGAAGGAGCAGGGC [Ateseszave] (puzzle: Exclusion 3)
[2]
  apparent KD of MS2 coat protein: 0.0956 µM
[1]
  apparent KD of MS2 coat protein: 0.146 µM
[3]
  apparent KD of MS2 coat protein: 0.105 µM

## GGUGAGCUAGGAUAUGCUUUGGGCUCGCUUUCCUUCGAUAAACUUGAGGAUCACCCAAGUAGAAGGAGCUUGCC [salish99_ex2_r4_033] (Eterna round: R97, puzzle: Exclusion 2)
Input ligand: FMN 200 uM
  apparent KD of MS2 coat protein: 0.0148 µM
Input ligand: none
  apparent KD of MS2 coat protein: 0.012 µM

## GAGGUACAUGAGGAUCACCCAUGUGAGGAUAUAGGUAGAGAUUGAGAGAGGUGGAGGACUAGAAGGCACAGUGG [JR_Exclu1_Sub040] (puzzle: Exclusion 1)
[2]
  apparent KD of MS2 coat protein: 0.0596 µM
[1]
  apparent KD of MS2 coat protein: 0.046 µM
[3]
  apparent KD of MS2 coat protein: 0.0603 µM
